Test results: US20230192896A1 (BIOVERATIV THERAPEUTICS, published 2023)
Numbering of substitutions follows the chain as printed.

B1: BIIB-12-1324 (antibody, V domains shown)
VH: QVQLVQSGAEVKKPGASVKVSCKASGYTFTSYYMVWVRQAPGQGLEWMGIINPSGGSTSYAQKFQGRVTMTRDTSTSTVYMELSSLRSEDTAVYYCARLPRYSKRGLDVWGQGTMVTVSS
VL: EIVMTQSPATLSLSPGERATLSCRASQSVSSYLAWYQQKPGQAPRLLIYDSSNRATGIPARFSGSGSGTDFTLTISSLEPEDFAVYYCQQLVSWPTFGGGTKVEIK
notes: IgG
B2: BIIB-12-1306 (antibody, V domains shown)
VH: QVQLQESGPGLVKPSQTLSLTCTVSGGSISSGGYYWSWIRQHPGKGLEWIGSIYYSGSTYYNPSLKSRVTISVDTSKNQFSLKLSSVTAADTAVYYCARGAGGSAPWGQGTLVTVSS
VL: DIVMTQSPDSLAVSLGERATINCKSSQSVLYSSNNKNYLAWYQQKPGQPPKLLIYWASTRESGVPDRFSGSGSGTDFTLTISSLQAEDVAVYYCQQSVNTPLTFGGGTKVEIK
notes: IgG
B3: BIIB-12-1319 (antibody, V domains shown)
VH: QVQLVESGGGVVQPGRSLRLSCAASGFTFSSYGMHWVRQAPGKGLEWVAVISYDGSNKYYADSVKGRFTISRDNSKNTLYLQMNSLRAEDTAVYYCARTGYHRSVYYWGQGTLVTVSS
VL: EIVMTQSPATLSVSPGERATLSCRASQSVSSNLAWYQQKPGQAPRLLIYGASTRATGIPARFSGSGSGTEFTLTISSLQSEDFAVYYCQQASNFPPTFGGGTKVEI
notes: IgG
B4: BIIB-12-1330 (antibody, V domains shown)
VH: B3 VH with R98K, T99G, Y101S, H102A, S104W, V105I, Y106N, Y107I, L113T
VL: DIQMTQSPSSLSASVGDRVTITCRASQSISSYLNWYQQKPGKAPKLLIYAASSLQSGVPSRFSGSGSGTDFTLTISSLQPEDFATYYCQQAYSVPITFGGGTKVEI
notes: IgG
B5: BIIB-12-1322 (antibody, V domains shown)
VH: QVQLVQSGAEVKKPGASVKVSCKASGYTFTSYYIHWVRQAPGQGLEWMGIINPSGGSTSYAQKFQGRVTMTRDTSTSTVYMELSSLRSEDTAVYYCARSRQRHRGDWYFDLWGRGTLVTVSS
VL: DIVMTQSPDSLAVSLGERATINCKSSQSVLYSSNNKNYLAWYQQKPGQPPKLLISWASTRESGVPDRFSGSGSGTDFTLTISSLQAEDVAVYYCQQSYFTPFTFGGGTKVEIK
notes: IgG
B6: BIIB-12-1325 (antibody, V domains shown)
VH: QVQLVQSGAEVKKPGASVKVSCKASGYTFTSYYMVWVRQAPGQGLEWMGIINPSGGSTSYAQKFQGRVTMTRDTSTSTVYMELSSLRSEDTAVYYCARGGRYMLDPWGQGTLVTVSS
VL: DIQMTQSPSTLSASVGDRVTITCRASQSISSWLAWYQQKPGKAPKLLIYKASSLESGVPSRFSGSGSGTEFTLTISSLQPDDFATYYCQQSNRYPRTFGGGTKVEIK
notes: IgG
B7: BIIB-12-1307 (antibody, V domains shown)
VH: QVQLQESGPGLVKPSETLSLTCAVSGYSISSGYYWAWIRQPPGKGLEWIGSIYHSGSTYYNPSLKSRVTISVDTSKNQFSLKLSSVTAADTAVYYCARGPLPRSRGLAFDIWGQGTMVTVSS
VL: DIQLTQSPSSLSASVGDRVTITCRASQSISSFLNWYQQKPGKAPKLLIYAASSLQSGVPSRFSGSGSGTDFTLTISSLQPEDFATYYCQQTYSTPLTFGGGTKVEIK
notes: IgG
B8: BIIB-12-1323 (antibody, V domains shown)
VH: QVQLVQSGAEVKKPGASVKVSCKASGYTFTSYYIHWVRQAPGQGLEWMGIINPSGGSTSYAQKFQGRVTMTRDTSTSTVYMELSSLRSEDTAVYYCARGRRFPRGLDYWGQGTLVTVSS
VL: B7 VL with L4M, L11V, S28G, F32W, N34A, T91A, Y92N, S93I, T94F, L96F
notes: IgG
B9: BIIB-12-1332 (antibody, V domains shown)
VH: B8 VH with I34M, H35S, G99L, R100G, F102K, P103S, G105V, L106F, Y108I, L114M
VL: B7 VL with L4M, L11V, S28G, F32W, N34A, T91V, Y92N, T94F, I106F
notes: IgG
B10: BIIB-12-1312 (antibody, V domains shown)
VH: QVQLVESGGGVVQPGRSLRLSCAASGFTFSSYGMHWVRQAPGKGLEWVAVISYDGSNKYYADSVKGRFTISRDNSKNTLYLQMNSLRAEDTAVYYCAKGMGHWIDYWGQGTLVTVSS
VL: B7 VL with L4M, L11V, S28G, F32W, N34A, T91A, Y92S, T94F, L96P
notes: IgG
B11: BIIB-12-1317 (antibody, V domains shown)
VH: B10 VH with K98R, M100V, H102G, W103H, I104D, D105T, Y106R
VL: B7 VL with L4M, L11V, S28G, F32W, N34A, T91R, Y92H, T94L, L96P
notes: IgG
B12: BIIB-12-1301 (antibody, V domains shown)
VH: QVQLVESGGGVVQPGRSLRLSCAASGFTFSSYGMHWVRQAPGKGLEWVAVISYDGSNKYYADSVKGRFTISRDNSKNTLYLQMNSLRAEDTAVYYCARTGNYGRGMPYWGQGTLVTVSS
VL: EIVLTQSPATLSLSPGERATLSCRASQSVSSYLAWYQQKPGQAPRLLIYDASKRATGIPARFSGSGSGTDFTLTISSLEPEDFAVYYCQQSSSWPPTFGGGTKVEIK
notes: IgG
B13: BIIB-12-1305 (antibody, V domains shown)
VH: QVQLVESGGGVVQPGRSLRLSCAASGFTFSSYGMHWVRQAPGKGLEWVAVISYDGSNKYYADSVKGRFTISRDNSKNTLYLQMNSLRAEDTAVYYCAKLGGRWSSDFQHWGQGTLVTVSS
VL: B12 VL with K53N, S92A, S93N
notes: IgG
B14: BIIB-12-1318 (antibody, V domains shown)
VH: QVQLVESGGGVVQPGRSLRLSCAASGFTFSSYGMHWVRQAPGKGLEWVAVISYDGSNKYYADSVKGRFTISRDNSKNTLYLQMNSLRAEDTAVYYCARKGDYRSGSYSGRAFGIWGQGTMVTVSS
VL: B12 VL with K53N, S91L, S92N, S93N
notes: IgG
B15: BIIB-12-1310 (antibody, V domains shown)
VH: EVQLVESGGGLVKPGGSLRLSCAASGFTFSSYSMNWVRQAPGKGLEWVSSISSSSSYIYYADSVKGRFTISRDNAKNSLYLQMNSLRAEDTAVYYCARLGGYGSSQRYFDLWGRGTLVTVSS
VL: B12 VL with S31R, K53N, Q89E, S91A, S93N
notes: IgG
B16: BIIB-12-1329 (antibody, V domains shown)
VH: B12 VH with T99G, N101A, Y102G, G103S, G105Y, M106F, P107Q, Y108H
VL: EIVMTQSPATKSVSPGERATLSCRASQSVSSNLAWYQQKPGQAPRLLIYSASTRATGIPARFSGSGSGTEFTLTISSLQSEDFAVYYCQQVFNWPPTFGGGTKVKIK
notes: IgG
B17: BIIB-12-1302 (antibody, V domains shown)
VH: QVQLVQSGAEVKKPGASVKVSCKASGYTFTNYGISWVRQAPGQGLEWMGWISAYNGNTNYAQKLQGRVTMTTDTSTSTAYMELRSLRSDDTAVYYCARARSDWRAFDIWGQGTMVTVSS
VL: B16 VL with K11L, S50G, F92N, W94L, P96L, K105E
notes: IgG
B18: BIIB-12-1327 (antibody, V domains shown)
VH: QVQLVESGGGVVQPGRSLRLSCAASGFTFSSYGMHWVRQAPGKGLEWVAVISYDGSNKYYADSVKGRFTISRDNSKNTLYLQMNSLRAEDTAVYYCAKLGLARGGGYGMDVWGQGTTVTVSS
VL: B16 VL with K11Q, S12Y, S50G, V91Y, F92H, W94F, K105E
notes: IgG
B19: BIIB-12-1328 (antibody, V domains shown)
VH: QLQLQESGPGLVKPSETLSLTCTVSGGSISSSSYYWGWIRQPPGKGLEWIGSIYYSGSTYYNPSLKSRVTISVDTSKNQFSLKLSSVTAADTAVYYCARDPAYYSGHDYYYYGMDVWGQGTTVTVSS
VL: B16 VL with K11L, S50G, V91P, F92N, N93S, W94Y, P96L, K105E
notes: IgG
B20: BIIB-12-1304 (antibody, V domains shown)
VH: B3 VH with R98K, T99G, G100P, Y101G, H102S, S104R, V105F, Y106D, Y107I, L113M
VL: B16 VL with K11L, S50G, V91A, F92N, N93V, W94L, P96L, K105E
notes: IgG
B21: BIIB-12-1313 (antibody, V domains shown)
VH: QVQLVESGGGVVQPGRSLRLSCAASGFTFSSYGMHWVRQAPGKGLEWVAVISYDGSNKYYADSVKGRFTISRDNSKNTLYLQMNSLRAEDTAVYYCAKGTGWWRYWGQGTLVTVSS
VL: B16 VL with K11L, S50G, V91H, F92N, N93H, W94L, P96I, K105E
notes: IgG
B22: BIIB-12-1315 (antibody, V domains shown)
VH: QVQLVQSGAEVKKPGASVKVSCKASGYTFTSYYMVWVRQAPGQGLEWMGIINPSGGSTSYAQKFQGRVTMTRDTSTSTVYMELSSLRSEDTAVYYCARGRPSSKRVTYFDYWGQGTLVTVSS
VL: EIVMTQSPATLSVSPGERATLSCRASQSVSSNLAWYQQKPGQAPRLLIYGASTRATGIPARFSGSGSGTEFTLTISSLQSEDFAVYYCQQVFNWPPWTFGGGTKVEIK
notes: IgG
B23: BIIB-12-1303 (antibody, V domains shown)
VH: QVQLVESGGGVVQPGRSLRLSCAASGFTFSSYGMHWVRQAPGKGLEWVAVISYDGSNKYYADSVKGRFTISRDNSKNTLYLQMNSLRAEDTAVYYCARGPTSRLFQHWGQGTLVTVS
VL: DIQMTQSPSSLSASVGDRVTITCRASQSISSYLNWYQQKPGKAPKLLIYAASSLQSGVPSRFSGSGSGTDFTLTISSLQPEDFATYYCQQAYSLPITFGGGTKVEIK
notes: IgG
B24: BIIB-12-1326 (antibody, V domains shown)
VH: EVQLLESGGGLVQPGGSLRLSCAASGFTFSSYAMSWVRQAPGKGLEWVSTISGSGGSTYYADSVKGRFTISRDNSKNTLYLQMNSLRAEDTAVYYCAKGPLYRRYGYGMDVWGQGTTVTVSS
VL: EIVLTQSPGTLSLSPGERATLSCRASQSVRSSYLAWYQQKPGQAPRLLIYGASSRATGIPDRFSGSGSGTDFTLTISRLEPEDFAVYYCQQAYSSPLTFGGGTKVEIK
notes: IgG

Target: T1, non-activatable Factor X (FXn) (Homo sapiens (Human), UniProt P00742 41-488, single biotin on the C-terminal BioTag)
T1 construct: also called BIIB-FX-015
Test: BLI; class meaning: paragraph 285

Binding result, binds:
B1
B2
B3
B4
B5
B6
B7
B8
B9
B10
B11
B12
B13
B14
B15
B16
B17
B18
B19
B20
B21
B22
B23
B24
